Source: patent publication US20190055314A1 (ADAGENE, published 2019)
Numbering of substitutions follows the chain as printed. Like-named read-outs stand apart in the source and are kept apart here. Values belong to the binder of their own block, whether it stands above or below them.

Legend:
[1] = target: T1, CD137-hisFc fusion protein (Sino Biological Cat 10041-H03H) (human, UniProt Q07011 24-186); test: BLI Octet, Fab
T1 construct: Bought; also called recombinant human CD137 (fused with human Fc and His tag); not shown: His tag and human Fc

[2] = target: T1, CD137-hisFc fusion protein (Sino …); test: BLI Octet, Fab; remark: listed apart in the source

B3: Fab 7159 (Fab, V domains shown)
VH: EVQLVESGGGLVQPGGSLRLSCAASGFSLSTSGVGVGWIRQAPGKGLEWIGDIYHSGSTYYNPSLKSRVTISRDNSKNTLYLQLNSLRAEDTAVYYCAREGSTAVLGDWFAYWGQGTLVTVSS
VL: DIQLTQSPSSLSASVGDRVTITCRASQSISSYLNWYQQKPGKAPKLLIYAASTLQSGVPSRFSGSGSGTDFTLTISSLQPEDFATYYCQQYYSTPLTFGQGTKVEIKR
notes: Fab from E. coli; also called VH58/VL58
- Kd [1]: 37.9 nM
- koff [1]: 0.00403 s⁻¹
- kon [1]: 106000 M⁻¹ s⁻¹

B4: Fab 7166 (Fab, V domains shown)
VH: B3 VH with G35A, G37A, S58N, E100G, T103D, A104T, L106V
VL: B3 VL
notes: Fab from E. coli; also called VH60/VL60
- Kd [1]: 12.4 nM
- koff [1]: 0.00429 s⁻¹
- kon [1]: 345000 M⁻¹ s⁻¹

B5: Fab 7163 (Fab, V domains shown)
VH: B3 VH with G37T, G46S, N62S, T103D, L106A, A111D
VL: B3 VL
notes: Fab from E. coli; also called VH59/VL59
- Kd [1]: 12.6 nM
- koff [1]: 0.00378 s⁻¹
- kon [1]: 299000 M⁻¹ s⁻¹

B6: Fab 4079 (Fab, V domains shown)
VH: EVQLVESGGGLVQPGGSLRLSCAASGFTFTGYWIHWVRQAPGKGLEWVGRIRSKTDGYTTEYAAPVKGRFTISRDNSKNTLYLQLNSLRAEDTAVYYCARLGGHWYFDVWGQGTLVTVSS
VL: DIQLTQSPSSLSASVGDRVTITCRASQSIGRYLNWYQQKPGKAPKLLIYDASNLETGVPSRFSGSGSGTDFTLTISSLQPEDFATYYCEQPLELPRTFGQGTKVEIKR
notes: Fab from E. coli; also called VH5/VL5
- Kd [1]: 31.5 nM
- koff [1]: 0.00219 s⁻¹
- kon [1]: 69300 M⁻¹ s⁻¹

B7: Fab 5360 (Fab, V domains shown)
VH: EVQLVESGGGLVQPGGSLRLSCAASGYSITSGHYWNWIRQAPGKGLEWVSGISGDGSSTYYADSVKGRFTISRDNSKNTLYLQLNSLRAEDTAVYYCARGGSDAVLGDWFAYWGQGTLVTVSS
VL: DIQLTQSPSSLSASVGDRVTITCRASQSISSYLAWYQQKPGKAPKLLIYDASNLETGVPSRFSGSGSGTDFTLTISSLQPEDFATYYCQQGYSTWTFGQGTKVEIKR
notes: Fab from E. coli; also called VH28/VL28
- Kd [2]: 24 nM
- koff [2]: 0.0029 s⁻¹
- kon [2]: 120000 M⁻¹ s⁻¹
- Kd [1]: 24.1 nM
- koff [1]: 0.00289 s⁻¹
- kon [1]: 120000 M⁻¹ s⁻¹

B8: Fab 4134 (Fab, V domains shown)
VH: EVQLVESGGGLVQPGGSLRLSCAASGYSISSGHHWGWIRQAPGKGLEWVSGISGYGDTTYYADSVKGRFTISRDNSKNTLYLQLNSLRAEDTAVYYCARDPYSSGSGYFDYWGQGTLVTVSS
VL: B7 VL with S28G, Y32A, A34G, D50A, N53S, E55Q, T56S, G91S, S93Y
notes: Fab from E. coli; also called VH6/VL6
- Kd [1]: 13 nM
- koff [1]: 0.000769 s⁻¹
- kon [1]: 59300 M⁻¹ s⁻¹

B10: Fab 5413 (Fab, V domains shown)
VH: EVQLVESGGGLVQPGGSLRLSCAASGFSLSTGGVAVGWIRQAPGKGLEWLALIDWDGDKSYSTSLKSRLTISRDNSKNTLYLQLNSLRAEDTAVYYCAREGSTAVVGDWFDYWGQGTLVTVSS
VL: B7 VL with S28G, S31R, L54R, E55A, V58I, T94L
notes: Fab from E. coli; also called VH38/VL38
- Kd [2]: 0.99 nM
- koff [2]: 0.00055 s⁻¹
- kon [2]: 560000 M⁻¹ s⁻¹
- Kd [1]: 0.993 nM
- koff [1]: 0.000551 s⁻¹
- kon [1]: 555000 M⁻¹ s⁻¹

B11: Fab 5348 (Fab, V domains shown)
VH: EVQLVESGGGLVQPGGSLRLSCAASGFSLSTGGVAVGWIRQAPGKGLEWVSGISGDGGTTYYADSVKGRFTISRDNSKNTLYLQLNSLRAEDTAVYYCTREDYGPHAYWGQGTLVTVSS
VL: B7 VL with S30T, S31T, A34N, G91S, T94Y, W95S
notes: Fab from E. coli; also called VH23/VL23
- Kd [1]: 10.2 nM
- koff [1]: 0.0133 s⁻¹
- kon [1]: 1.31e+06 M⁻¹ s⁻¹

B12: Fab 5408 (Fab, V domains shown)
VH: B7 VH with H33Y, Y34H, N36S, G51S, D55Y, S57D, S58T, G100E, A104T
VL: B7 VL with R24Q, S28D, S30R, S31T, T94I
notes: Fab from E. coli; also called VH36/VL36
- Kd [2]: 24 nM
- koff [2]: 0.0075 s⁻¹
- kon [2]: 320000 M⁻¹ s⁻¹
- Kd [1]: 23.6 nM
- koff [1]: 0.0075 s⁻¹
- kon [1]: 318000 M⁻¹ s⁻¹

B14: Fab 7097 (Fab, V domains shown)
VH: B7 VH with T30S, Y34H, N36D, G51Y, D55A, S57D, S58T, G100E
VL: B3 VL with S28G, N34A, A50D, T53N, Q55E, S56T
notes: Fab from E. coli; also called VH49/VL49
- Kd [1]: 24.3 nM
- koff [1]: 0.0132 s⁻¹
- kon [1]: 542000 M⁻¹ s⁻¹

B15: Fab 5341 (Fab, V domains shown)
VH: B7 VH with Y34H, N36A, G51A, S58T, G100E, D103T, L106T
VL: DIQLTQSPSSLSASVGDRVTITCSASSRVGYVHWYQQKPGKAPKLLIYDASSLESGVPSRFSGSGSGTDFTLTISSLQPEDFATYYCQQGYYTWTFGQGTKVEIKR
notes: Fab from E. coli; also called VH20/VL20
- Kd [1]: 29.3 nM
- koff [1]: 0.00188 s⁻¹
- kon [1]: 64200 M⁻¹ s⁻¹

B18: Fab 5342 (Fab, V domains shown)
VH: B10 VH with D56A, S102E, T103D, V106T, D111A
VL: B7 VL with R24Q, S28D, S30R, S31T, L54R, E55A, V58I, T94I
notes: Fab from E. coli; also called VH21/VL21
- Kd [2]: 39 nM
- koff [2]: 0.0061 s⁻¹
- kon [2]: 160000 M⁻¹ s⁻¹
- Kd [1]: 38.9 nM
- koff [1]: 0.00612 s⁻¹
- kon [1]: 157000 M⁻¹ s⁻¹

B19: Fab 5409 (Fab, V domains shown)
VH: B7 VH with T30S, Y34H, N36A, G51V, D55S, G100E, A104T
VL: B7 VL with S28G
notes: Fab from E. coli; also called VH37/VL37
- Kd [2]: 17 nM
- koff [2]: 0.0043 s⁻¹
- kon [2]: 250000 M⁻¹ s⁻¹
- Kd [1]: 17 nM
- koff [1]: 0.00427 s⁻¹
- kon [1]: 251000 M⁻¹ s⁻¹

B20: Fab 5318 (Fab, V domains shown)
VH: B10 VH with G32S, G57D, S60Y, V106A, D111A
VL: B7 VL with R24Q, S28D, S30R, S31T, Y32F, L54R, E55A, V58I
notes: Fab from E. coli; also called VH18/VL18
- Kd [2]: 19 nM
- koff [2]: 0.0027 s⁻¹
- kon [2]: 140000 M⁻¹ s⁻¹
- Kd [1]: 19 nM
- koff [1]: 0.00269 s⁻¹
- kon [1]: 141000 M⁻¹ s⁻¹

Second part, the binder after the results:

- Kd [1]: 1.65 nM
- koff [1]: 8.17e-05 s⁻¹
- kon [1]: 49600 M⁻¹ s⁻¹
B1: Fab 4139 (Fab, V domains shown)
VH: EVQLVESGGGLVQPGGSLRLSCAASGYTFTGYAIHWVRQAPGKGLEWVSAISGDGGSTYYADSVKGRFTISRDNSKNTLYLQLNSLRAEDTAVYYCARGYRGYFDYWGQGTLVTVSS
VL: DIQLTQSPSSLSASVGDRVTITCRASESVTSTYLAWYQQKPGKAPKLLIYDASNLETGVPSRFSGSGSGTDFTLTISSLQPEDFATYYCQQYSDWPPTFGQGTKVEIKR
notes: Fab from E. coli; also called VH8/VL8

- Kd [2]: 3.3 nM
- koff [2]: 0.0013 s⁻¹
- kon [2]: 400000 M⁻¹ s⁻¹
- Kd [1]: 3.3 nM
- koff [1]: 0.0013 s⁻¹
- kon [1]: 395000 M⁻¹ s⁻¹
B2: Fab 5404 (Fab, V domains shown)
VH: EVQLVESGGGLVQPGGSLRLSCAASGYSISSGYHWAWIRQAPGKGLEWIGEIYHSGSTYYSPSLKSRVTISRDNSKNTLYLQLNSLRAEDTAVYYCARSPYYYGVFDYWGQGTLVTVSS
VL: DIQLTQSPSSLSASVGDRVTITCSASSRVGSVYWYQQKPGKAPKLLIYDASNLETGVPSRFSGSGSGTDFTLTISSLQPEDFATYYCQQYTHDPVTFGQGTKVEIKR
notes: Fab from E. coli; also called VH34/VL34

- Kd [1]: < 0.001 nM
- koff [1]: < 1e-07 s⁻¹
- kon [1]: 85600 M⁻¹ s⁻¹
B9: Fab 4137 (Fab, V domains shown)
VH: EVQLVESGGGLVQPGGSLRLSCAASGYSITSGYYWGWIRQAPGKGLEWVSGISGSGSSTYYADSVKGRFTISRDNSKNTLYLQLNSLRAEDTAVYYCARGTYSFDVWGQGTLVTVSS
VL: B7 VL with S28G, Y32D, D50A, N53T, E55Q, T56S, G91Y, T94Y, W95I
notes: Fab from E. coli; also called VH7/VL7

- Kd [2]: 1.2 nM
- koff [2]: 0.00043 s⁻¹
- kon [2]: 350000 M⁻¹ s⁻¹
- Kd [1]: 1.21 nM
- koff [1]: 0.000426 s⁻¹
- kon [1]: 354000 M⁻¹ s⁻¹
B13: Fab 5302 (Fab, V domains shown)
VH: EVQLVESGGGLVQPGGSLRLSCAASGFSLSTGGVGVAWIRQAPGKGLEWVSSISGYGSTTYYADSVKGRFTISRDNSKNTLYLQLNSLRAEDTAVYYCAREGSDAVLGDWFGYWGQGTLVTVSS
VL: B7 VL with R24Q, S28D, S30T, S31T, L54R, E55A, V58I, S93Y, T94L
notes: Fab from E. coli; also called VH13/VL13

- Kd [1]: 3.97 nM
- koff [1]: 0.00479 s⁻¹
- kon [1]: 1.21e+06 M⁻¹ s⁻¹
B16: Fab 5371 (Fab, V domains shown)
VH: B13 VH with G32S, S52Y, Y56D, S58G, T59S, A105V, L107A, G112A
VL: B7 VL with S28D, Y32V, N53S, T56S, S93Q, T94I
notes: Fab from E. coli; also called VH33/VL33

- Kd [1]: < 0.001 nM
- koff [1]: < 1e-07 s⁻¹
- kon [1]: 25700 M⁻¹ s⁻¹
B17: Fab 4140 (Fab, V domains shown)
VH: EVQLVESGGGLVQPGGSLRLSCAASGYSISSGYHWNWIRQAPGKGLEWVSSISGSGGSTYYADSVKGRFTISRDNSKNTLYLQLNSLRAEDTAVYYCARDPNYYSSGSYFDYWGQGTLVTVSS
VL: B7 VL with S28G, S30G, Y32F, A34G, L54R, E55A, V58I, G91S, T94L
notes: Fab from E. coli; also called VH9/VL9

- Kd [2]: 8.4 nM
- koff [2]: 0.0018 s⁻¹
- kon [2]: 210000 M⁻¹ s⁻¹
- Kd [1]: 8.39 nM
- koff [1]: 0.00177 s⁻¹
- kon [1]: 210000 M⁻¹ s⁻¹
B21: Fab 5314 (Fab, V domains shown)
VH: B10 VH with D56A, E100G, T103D, A104T, V106L, D111A
VL: B7 VL with S28G, I29V, S31P, L54R, E55A, V58I
notes: Fab from E. coli; also called VH16/VL16

- Kd [2]: 1.9 nM
- koff [2]: 0.001 s⁻¹
- kon [2]: 520000 M⁻¹ s⁻¹
- Kd [1]: 1.91 nM
- koff [1]: 0.001 s⁻¹
- kon [1]: 524000 M⁻¹ s⁻¹
B22: Fab 5370 (Fab, V domains shown)
VH: B10 VH with G32S, G37A, G57D, S60R, A104T
VL: B7 VL with S28G, S30G, S31T, L54R, E55A, V58I, T94L
notes: Fab from E. coli; also called VH32/VL32
